This note sets out measurements from publication PMC8253144 (mAbs, 2021).

The target of the test is recombinant human EPHA2 ectodomain (Homo sapiens, UniProt P29317). As to the kind of experiment: BLI.
recombinant human EPHA2 ectodomain, sequence (P29317 24-537): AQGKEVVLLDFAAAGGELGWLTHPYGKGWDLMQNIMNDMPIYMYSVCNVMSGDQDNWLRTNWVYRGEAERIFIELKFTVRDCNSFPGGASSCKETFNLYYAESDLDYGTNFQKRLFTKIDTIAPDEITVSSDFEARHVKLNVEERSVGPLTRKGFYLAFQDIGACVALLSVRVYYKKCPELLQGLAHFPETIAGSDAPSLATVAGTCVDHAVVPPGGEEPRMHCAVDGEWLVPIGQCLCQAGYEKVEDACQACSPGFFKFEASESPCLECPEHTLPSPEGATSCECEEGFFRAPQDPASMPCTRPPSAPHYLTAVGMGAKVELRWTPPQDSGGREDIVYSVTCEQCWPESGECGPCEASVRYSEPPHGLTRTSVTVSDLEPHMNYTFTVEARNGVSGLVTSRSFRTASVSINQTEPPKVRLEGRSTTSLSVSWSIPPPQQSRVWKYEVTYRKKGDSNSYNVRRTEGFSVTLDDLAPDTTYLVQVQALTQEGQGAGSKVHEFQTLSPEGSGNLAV

B1: anti-EPHA2 Fab A2-3 (Fab, V domains shown)
VH: EVQLVESGGGLVQPGGSLRLSCAASGFNISYYYMHWVRQAPGKGLEWVASIYPSYSYTSYADSVKGRFTISADTSKNTAYLQMNSLRAEDTAVYYCARGGVVSWAHPAASYYVYGAMDYWGQGTLVTVSS
VL: DIQMTQSPSSLSASVGDRVTITCRASQSVSSAVAWYQQKPGKAPKLLIYSASSLYSGVPSRFSGSRSGTDFTLTISSLQPEDFATYYCQQAVWSGYPITFGQGTKVEIK
Regarding B1, the binding result is recorded as “binds”.

B2: anti-EPHA2 Fab A2-4 (Fab, V domains shown)
VH: EVQLVESGGGLVQPGGSLRLSCAASGFNISSYYMHWVRQAPGKGLEWVASISPSYSYTYYADSVKGRFTISADTSKNTAYLQMNSLRAEDTAVYYCARGWSFVGMDYWGQGTLVTVSS
VL: DIQMTQSPSSLSASVGDRVTITCRASQSVSSAVAWYQQKPGKAPKLLIYSASSLYSGVPSRFSGSRSGTDFTLTISSLQPEDFATYYCQQGAPWSPITFGQGTKVEIK
As to B2, the binding result is “binds”.
